# Measurements published in IntAct's records for PubMed 14517550.
# B1: Caspase Dronc (Drosophila melanogaster (Fruit fly)), Q9XYF4 (parent)
# chain: MQPPELEIGMPKRHREHIRKNLNILVEWTNYERLAMECVQQGILTVQMLRNTQDLNGKPFNMDEKDVRVEQHRRLLLKITQRGPTAYNLLINALRNINCLDAAVLLESVDESDSRPPFISLNERRTSRKSADIVDTPSPEASEGPCVSKLRNEPLGALTPYVGVVDGPEVKKSKKIHGGDSAILGTYKMQSRFNRGVLLMVNIMDYPDQNRRRIGAEKDSKSLIHLFQELNFTIFPYGNVNQDQFFKLLTMVTSSSYVQNTECFVMVLMTHGNSVEGKEKVEFCDGSVVDMQKIKDHFQTAKCPYLVNKPKVLMFPFCRGDEYDLGHPKNQGNLMEPVYTAQEEKWPDTQTEGIPSPSTNVPSLADTLVCYANTPGYVTHRDLDTGSWYIQKFCQVMADHAHDTDLEDILKKTSEAVGNKRTKKGSMQTGAYDNLGFNKKLYFNPGFFNE
# partner: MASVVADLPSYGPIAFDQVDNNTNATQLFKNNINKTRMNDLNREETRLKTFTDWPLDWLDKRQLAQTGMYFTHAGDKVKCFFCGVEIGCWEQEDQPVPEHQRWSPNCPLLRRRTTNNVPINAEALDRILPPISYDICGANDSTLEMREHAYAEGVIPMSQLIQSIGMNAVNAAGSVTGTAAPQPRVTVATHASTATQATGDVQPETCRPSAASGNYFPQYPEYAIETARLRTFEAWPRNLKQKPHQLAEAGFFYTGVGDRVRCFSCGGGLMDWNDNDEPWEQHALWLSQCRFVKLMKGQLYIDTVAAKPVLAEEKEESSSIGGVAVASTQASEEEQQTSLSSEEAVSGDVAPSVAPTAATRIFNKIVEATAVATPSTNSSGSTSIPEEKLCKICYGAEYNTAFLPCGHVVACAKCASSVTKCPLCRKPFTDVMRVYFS
# Variants of: B1
# Settings: with diap1_drome Diap1, Q24306
row,effect of a mutation on the interaction,Variant
1,decreasing interaction,MQPPELEIGMPKRHREHIRKNLNILVEWTNYERLAMECVQQGILTVQMLRNTQDLNGKPFNMDEKDVRVEQHRRLLLKITQRGPTAYNLLINALRNINCLDAAVLLESVDESDSRPPEISLNERRTSRKSADIVDTPSPEASEGPCVSKLRNEPLGALTPYVGVVDGPEVKKSKKIHGGDSAILGTYKMQSRFNRGVLLMVNIMDYPDQNRRRIGAEKDSKSLIHLFQELNFTIFPYGNVNQDQFFKLLTMVTSSSYVQNTECFVMVLMTHGNSVEGKEKVEFCDGSVVDMQKIKDHFQTAKCPYLVNKPKVLMFPFCRGDEYDLGHPKNQGNLMEPVYTAQEEKWPDTQTEGIPSPSTNVPSLADTLVCYANTPGYVTHRDLDTGSWYIQKFCQVMADHAHDTDLEDILKKTSEAVGNKRTKKGSMQTGAYDNLGFNKKLYFNPGFFNE [F118E]
